From paper doi:10.1101/2024.12.03.626531, “Lineage–specific amino acids define functional attributes of the protomer-protomer interfaces for the Rad51 and Dmc1 recombinases” (bioRxiv, 2024) come the findings set out here.

The data set deals with the molecule itself. The data set is described as follows: cryo-EM structure; helical filament: ScDmc1 5 µM with 0.25 µM 96-mer ssDNA in HR buffer supplemented with 1.5 mM CaCl2, 30°C for 5 minutes; 8 mM CHAPSO added before freezing.

B1: S. cerevisiae Dmc1 (natural protein, UniProt P25453 1-334, looked up)
chain: MSVTGTEIDSDTAKNILSVDELQNYGINASDLQKLKSGGIYTVNTVLSTTRRHLCKIKGLSEVKVEKIKEAAGKIIQVGFIPATVQLDIRQRVYSLSTGSKQLDSILGGGIMTMSITEVFGEFRCGKTQMSHTLCVTTQLPREMGGGEGKVAYIDTEGTFRPERIKQIAEGYELDPESCLANVSYARALNSEHQMELVEQLGEELSSGDYRLIVVDSIMANFRVDYCGRGELSERQQKLNQHLFKLNRLAEEFNVAVFLTNQVQSDPGASALFASADGRKPIGGHVLAHASATRILLRKGRGDERVAKLQDSPDMPEKECVYVIGEKGITDSSD
notes: Dmc1 meiotic recombinase, Saccharomyces cerevisiae, full-length wild type; Helical filament on a 96-nt ssDNA with ATP; 6.35 monomers per turn; Expressed as 6XHis-ScDmc1; no removal of the tag is described; also called ScDmc1; yeast Dmc1; source: E. coli BL21 (DE3) Rosetta2, purified (Talon resin, heparin sepharose)
As to B1, the binding result was “binds”.
